{"source": "paper PMC9133112", "about": "“The structural basis of Cdc7-Dbf4 kinase dependent targeting and phosphorylation of the MCM2-7 double hexamer” (Nature Communications, 2022)", "binders": {"B1": {"name": "Mcm7 (natural protein, Saccharomyces cerevisiae, UniProt P38132 1-845, looked up)", "chain": "MSAALPSIQLPVDYNNLFNEITDFLVTFKQDTLSSDATRNENEDENLDAENIEQHLLEKGPKYMAMLQKVANRELNSVIIDLDDILQYQNEKFLQGTQADDLVSAIQQNANHFTELFCRAIDNNMPLPTKEIDYKDDVLDVILNQRRLRNERMLSDRTNEIRSENLMDTTMDPPSSMNDALREVVEDETELFPPNLTRRYFLYFKPLSQNCARRYRKKAISSKPLSVRQIKGDFLGQLITVRGIITRVSDVKPAVEVIAYTCDQCGYEVFQEVNSRTFTPLSECTSEECSQNQTKGQLFMSTRASKFSAFQECKIQELSQQVPVGHIPRSLNIHVNGTLVRSLSPGDIVDVTGIFLPAPYTGFKALKAGLLTETYLEAQFVRQHKKKFASFSLTSDVEERVMELITSGDVYNRLAKSIAPEIYGNLDVKKALLLLLVGGVDKRVGDGMKIRGDINVCLMGDPGVAKSQLLKAICKISPRGVYTTGKGSSGVGLTAAVMKDPVTDEMILEGGALVLADNGICCIDEFDKMDESDRTAIHEVMEQQTISISKAGINTTLNARTSILAAANPLYGRYNPRLSPLDNINLPAALLSRFDILFLMLDIPSRDDDEKLAEHVTYVHMHNKQPDLDFTPVEPSKMREYIAYAKTKRPVMSEAVNDYVVQAYIRLRQDSKREMDSKFSFGQATPRTLLGIIRLSQALAKLRLADMVDIDDVEEALRLVRVSKESLYQETNKSKEDESPTTKIFTIIKKMLQETGKNTLSYENIVKTVRLRGFTMLQLSNCIQEYSYLNVWHLINEGNTLKFVDDGTMDTDQEDSLVSTPKLAPQTTASANVSAQDSDIDLQDA", "notes": "Mcm7, Saccharomyces cerevisiae, full length; Subunit of m2, written alone for the contacts seen in the cryo-EM structures"}, "B2": {"name": "Dbf4-dependent Cdc7 kinase (DDK), wild type (complex, Saccharomyces cerevisiae)", "chain 1": "MTSKTKNIDDIPPEIKEEMIQLYHDLPGIENEYKLIDKIGEGTFSSVYKAKDITGKITKKFASHFWNYGSNYVALKKIYVTSSPQRIYNELNLLYIMTGSSRVAPLCDAKRVRDQVIAVLPYYPHEEFRTFYRDLPIKGIKKYIWELLRALKFVHSKGIIHRDIKPTNFLFNLELGRGVLVDFGLAEAQMDYKSMISSQNDYDNYANTNHDGGYSMRNHEQFCPCIMRNQYSPNSHNQTPPMVTIQNGKVVHLNNVNGVDLTKGYPKNETRRIKRANRAGTRGFRAPEVLMKCGAQSTKIDIWSVGVILLSLLGRRFPMFQSLDDADSLLELCTIFGWKELRKCAALHGLGFEASGLIWDKPNGYSNGLKEFVYDLLNKECTIGTFPEYSVAFETFGFLQQELHDRMSIEPQLPDPKTNMDAVDAYELKKYQEEIWSDHYWCFQVLEQCFEMDPQKRSSAEDLLKTPFFNELNENTYLLDGESTDEDDVVSSSEADLLDKDVLLISE", "chain 2": "MVSPTKMIIRSPLKETDTNLKHNNGIAASTTAAGHLNVFSNDNNCNNNNTTESFPKKRSLERLELQQQQHLHEKKRARIERARSIEGAVQVSKGTGLKNVEPRVTPKELLEWQTNWKKIMKRDSRIYFDITDDVEMNTYNKSKMDKRRDLLKRGFLTLGAQITQFFDTTVTIVITRRSVENIYLLKDTDILSRAKKNYMKVWSYEKAARFLKNLDVDLDHLSKTKSASLAAPTLSNLLHNEKLYGPTDRDPRTKRDDIHYFKYPHVYLYDLWQTWAPIITLEWKPQELTNLDELPYPILKIGSFGRCPFIGDRNYDESSYKRVVKRYSRDKANKKYALQLRALFQYHADTLLNTSSVNDQTKNLIFIPHTCNDSTKSFKKWMQEKAKNFEKTELKKTDDSAVQDVRNEHADQTDEKNSILLNETETKEPPLKEEKENKQSIAEESNKYPQRKELAATPKLNHPVLATFARQETEEVPDDLCTLKTKSRQAFEIKASGAHQSNDVATSFGNGLGPTRASVMSKNMKSLSRLMVDRKLGVKQTNGNNKNYTATIATTAETSKENRHRLDFNALKKDEAPSKETGKDSAVHLETNRKPQNFPKVATKSVSADSKVHNDIKITTTESPTASKKSTSTNVTLHFNAQTAQTAQPVKKETVKNSGYCENCRVKYESLEQHIVSEKHLSFAENDLNFEAIDSLIENLRFQI", "notes": "Cdc7 serine/threonine kinase, Saccharomyces cerevisiae, full length; Dbf4 (dumbbell former 4), Saccharomyces cerevisiae, full length; An MBP tag was cleaved with PreScission Protease; Treated with lambda phosphatase during purification; autophosphorylates (thio-phosphorylates with ATPγS) in the assays; also called Cdc7-Dbf4; WT DDK; source: budding yeast cells, purified (amylose resin, lambda …)"}}, "experiment_in_all_cases": "cryo-EM structure; MD-(ATPγS): 250 nM DH released from beads by AluI + 750 nM DDK, 10 min 24 °C, buffer C with 3 mM ATPγS; GraFix glycerol gradient with glutaraldehyde; states I-III", "conditions_in_all_cases": "both partners purified", "key": {"Mcm3": {"target": "T1, Mcm3 (Saccharomyces cerevisiae, UniProt P24279 1-971)", "T1 construct": "Mcm3, Saccharomyces cerevisiae, full length; Subunit of m2, written alone for the contacts seen in the cryo-EM structures", "T1 sequence (P24279 whole entry)": "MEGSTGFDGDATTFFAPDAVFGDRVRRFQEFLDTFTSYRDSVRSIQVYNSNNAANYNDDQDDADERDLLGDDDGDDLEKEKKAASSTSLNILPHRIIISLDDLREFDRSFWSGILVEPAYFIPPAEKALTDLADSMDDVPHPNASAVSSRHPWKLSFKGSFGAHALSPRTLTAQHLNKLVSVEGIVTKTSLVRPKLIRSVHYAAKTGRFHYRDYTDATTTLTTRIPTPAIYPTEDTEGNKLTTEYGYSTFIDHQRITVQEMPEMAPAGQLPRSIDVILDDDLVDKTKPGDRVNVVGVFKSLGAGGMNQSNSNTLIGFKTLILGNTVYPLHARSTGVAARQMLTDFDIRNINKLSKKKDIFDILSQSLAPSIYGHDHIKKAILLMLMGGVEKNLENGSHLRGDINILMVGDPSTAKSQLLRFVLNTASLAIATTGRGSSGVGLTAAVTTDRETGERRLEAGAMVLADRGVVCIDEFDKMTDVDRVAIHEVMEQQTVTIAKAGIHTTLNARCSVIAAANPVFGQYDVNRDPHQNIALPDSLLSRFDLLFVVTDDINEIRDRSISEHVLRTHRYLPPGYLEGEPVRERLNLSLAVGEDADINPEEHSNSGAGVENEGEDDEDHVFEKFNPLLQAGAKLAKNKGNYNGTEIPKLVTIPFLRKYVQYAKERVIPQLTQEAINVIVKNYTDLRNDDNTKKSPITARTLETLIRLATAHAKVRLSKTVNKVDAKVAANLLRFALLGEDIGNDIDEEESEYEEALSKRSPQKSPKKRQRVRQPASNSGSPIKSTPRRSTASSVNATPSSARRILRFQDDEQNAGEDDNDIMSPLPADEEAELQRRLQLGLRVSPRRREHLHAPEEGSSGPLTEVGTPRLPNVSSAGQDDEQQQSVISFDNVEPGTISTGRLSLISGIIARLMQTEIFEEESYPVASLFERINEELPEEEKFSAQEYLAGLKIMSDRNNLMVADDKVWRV"}, "Mcm4": {"target": "T2, Mcm4 (Saccharomyces cerevisiae, UniProt P30665 1-933)", "T2 construct": "Mcm4, Saccharomyces cerevisiae, full length; Subunit of m2, written alone for the contacts seen in the cryo-EM structures", "T2 sequence (looked up)": "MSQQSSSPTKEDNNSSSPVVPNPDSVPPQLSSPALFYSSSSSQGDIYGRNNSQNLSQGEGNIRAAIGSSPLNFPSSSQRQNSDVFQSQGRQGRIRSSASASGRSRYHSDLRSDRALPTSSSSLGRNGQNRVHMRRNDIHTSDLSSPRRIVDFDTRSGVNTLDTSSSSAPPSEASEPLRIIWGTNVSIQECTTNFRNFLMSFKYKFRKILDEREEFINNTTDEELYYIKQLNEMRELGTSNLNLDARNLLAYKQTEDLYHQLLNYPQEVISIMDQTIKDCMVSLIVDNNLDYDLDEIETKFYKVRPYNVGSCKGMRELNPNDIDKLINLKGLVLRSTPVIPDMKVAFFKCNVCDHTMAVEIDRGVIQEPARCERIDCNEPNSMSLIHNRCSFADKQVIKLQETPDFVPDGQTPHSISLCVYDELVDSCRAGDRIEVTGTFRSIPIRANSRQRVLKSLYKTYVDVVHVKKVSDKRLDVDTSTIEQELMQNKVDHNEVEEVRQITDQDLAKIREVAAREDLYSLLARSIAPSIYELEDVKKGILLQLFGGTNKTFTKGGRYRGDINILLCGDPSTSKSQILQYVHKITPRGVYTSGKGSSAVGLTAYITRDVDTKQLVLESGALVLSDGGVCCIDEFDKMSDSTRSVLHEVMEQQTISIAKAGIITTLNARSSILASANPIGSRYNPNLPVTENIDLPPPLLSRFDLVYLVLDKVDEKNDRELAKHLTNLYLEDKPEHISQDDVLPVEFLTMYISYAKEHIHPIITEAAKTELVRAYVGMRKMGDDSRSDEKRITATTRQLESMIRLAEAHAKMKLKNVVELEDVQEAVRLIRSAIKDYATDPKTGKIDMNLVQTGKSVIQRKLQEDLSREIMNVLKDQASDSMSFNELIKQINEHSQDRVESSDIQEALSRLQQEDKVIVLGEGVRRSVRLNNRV"}, "MCM2-7 double hexamer": {"target": "T3, MCM2-7 double hexamer (Saccharomyces cerevisiae, UniProt P29469 1-868; P24279 1-971; P30665 1-933; P29496 1-775; P53091 1-1017; P38132 …)", "T3 construct": "Mcm2, Saccharomyces cerevisiae, full length; Mcm3, Saccharomyces cerevisiae, full length; Mcm4, Saccharomyces cerevisiae, full length; Mcm5, Saccharomyces cerevisiae, full length; Mcm6, Saccharomyces cerevisiae, full length; Mcm7, Saccharomyces cerevisiae, full length; Two head-to-head MCM2-7 hexamers assembled on origin DNA; becomes (thio-)phosphorylated by DDK on Mcm2, Mcm4, Mcm6 (and Mcm7) …", "T3 sequence (P29469 whole entry, chain 1 of 4)": "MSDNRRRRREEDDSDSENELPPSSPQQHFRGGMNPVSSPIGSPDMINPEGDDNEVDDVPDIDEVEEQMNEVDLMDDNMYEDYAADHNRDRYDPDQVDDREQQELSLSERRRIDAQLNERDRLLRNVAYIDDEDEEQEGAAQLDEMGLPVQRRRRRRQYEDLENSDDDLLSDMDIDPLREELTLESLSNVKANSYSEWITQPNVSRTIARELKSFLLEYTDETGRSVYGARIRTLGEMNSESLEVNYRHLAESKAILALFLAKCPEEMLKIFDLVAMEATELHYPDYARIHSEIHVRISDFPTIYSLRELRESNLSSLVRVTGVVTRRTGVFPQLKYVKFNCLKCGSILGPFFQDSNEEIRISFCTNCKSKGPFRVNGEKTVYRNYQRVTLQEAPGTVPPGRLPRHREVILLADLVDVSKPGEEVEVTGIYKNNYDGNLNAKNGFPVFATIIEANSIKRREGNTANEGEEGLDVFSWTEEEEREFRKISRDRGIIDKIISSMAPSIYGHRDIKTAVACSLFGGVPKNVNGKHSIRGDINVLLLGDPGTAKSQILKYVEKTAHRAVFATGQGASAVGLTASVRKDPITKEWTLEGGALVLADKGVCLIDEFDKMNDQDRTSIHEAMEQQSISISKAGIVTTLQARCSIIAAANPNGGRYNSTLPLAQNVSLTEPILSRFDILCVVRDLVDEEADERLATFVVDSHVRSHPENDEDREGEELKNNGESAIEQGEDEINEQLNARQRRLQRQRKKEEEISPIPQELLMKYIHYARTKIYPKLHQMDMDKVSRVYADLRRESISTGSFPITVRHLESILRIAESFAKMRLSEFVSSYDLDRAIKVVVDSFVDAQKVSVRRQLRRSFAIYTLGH", "T3 sequence (P24279 whole entry, chain 2 of 4)": "as the sequence (P24279 whole entry) above", "T3 sequence (P29496 whole entry, chain 4 of 4)": "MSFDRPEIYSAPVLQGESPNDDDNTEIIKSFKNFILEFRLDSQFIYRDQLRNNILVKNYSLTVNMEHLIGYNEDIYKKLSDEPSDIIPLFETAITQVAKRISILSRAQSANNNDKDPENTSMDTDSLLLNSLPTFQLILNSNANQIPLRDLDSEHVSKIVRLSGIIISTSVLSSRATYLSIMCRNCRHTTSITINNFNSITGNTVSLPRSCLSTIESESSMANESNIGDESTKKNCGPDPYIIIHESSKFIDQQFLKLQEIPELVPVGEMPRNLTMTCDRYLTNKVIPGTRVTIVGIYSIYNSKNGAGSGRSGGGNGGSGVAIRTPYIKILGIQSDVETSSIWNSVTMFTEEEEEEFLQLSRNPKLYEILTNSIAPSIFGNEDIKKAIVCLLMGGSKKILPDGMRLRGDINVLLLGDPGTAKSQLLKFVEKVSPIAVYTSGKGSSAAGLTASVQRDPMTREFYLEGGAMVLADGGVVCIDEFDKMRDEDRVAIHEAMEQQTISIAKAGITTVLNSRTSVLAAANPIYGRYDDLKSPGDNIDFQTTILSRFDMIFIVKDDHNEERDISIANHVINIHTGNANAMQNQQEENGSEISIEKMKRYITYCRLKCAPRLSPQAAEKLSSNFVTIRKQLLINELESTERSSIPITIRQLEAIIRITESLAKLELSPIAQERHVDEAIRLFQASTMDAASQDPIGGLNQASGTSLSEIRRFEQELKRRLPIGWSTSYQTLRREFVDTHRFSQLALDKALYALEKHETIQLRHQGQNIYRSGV", "T3 sequence (P53091 whole entry, chain 5 of 4)": "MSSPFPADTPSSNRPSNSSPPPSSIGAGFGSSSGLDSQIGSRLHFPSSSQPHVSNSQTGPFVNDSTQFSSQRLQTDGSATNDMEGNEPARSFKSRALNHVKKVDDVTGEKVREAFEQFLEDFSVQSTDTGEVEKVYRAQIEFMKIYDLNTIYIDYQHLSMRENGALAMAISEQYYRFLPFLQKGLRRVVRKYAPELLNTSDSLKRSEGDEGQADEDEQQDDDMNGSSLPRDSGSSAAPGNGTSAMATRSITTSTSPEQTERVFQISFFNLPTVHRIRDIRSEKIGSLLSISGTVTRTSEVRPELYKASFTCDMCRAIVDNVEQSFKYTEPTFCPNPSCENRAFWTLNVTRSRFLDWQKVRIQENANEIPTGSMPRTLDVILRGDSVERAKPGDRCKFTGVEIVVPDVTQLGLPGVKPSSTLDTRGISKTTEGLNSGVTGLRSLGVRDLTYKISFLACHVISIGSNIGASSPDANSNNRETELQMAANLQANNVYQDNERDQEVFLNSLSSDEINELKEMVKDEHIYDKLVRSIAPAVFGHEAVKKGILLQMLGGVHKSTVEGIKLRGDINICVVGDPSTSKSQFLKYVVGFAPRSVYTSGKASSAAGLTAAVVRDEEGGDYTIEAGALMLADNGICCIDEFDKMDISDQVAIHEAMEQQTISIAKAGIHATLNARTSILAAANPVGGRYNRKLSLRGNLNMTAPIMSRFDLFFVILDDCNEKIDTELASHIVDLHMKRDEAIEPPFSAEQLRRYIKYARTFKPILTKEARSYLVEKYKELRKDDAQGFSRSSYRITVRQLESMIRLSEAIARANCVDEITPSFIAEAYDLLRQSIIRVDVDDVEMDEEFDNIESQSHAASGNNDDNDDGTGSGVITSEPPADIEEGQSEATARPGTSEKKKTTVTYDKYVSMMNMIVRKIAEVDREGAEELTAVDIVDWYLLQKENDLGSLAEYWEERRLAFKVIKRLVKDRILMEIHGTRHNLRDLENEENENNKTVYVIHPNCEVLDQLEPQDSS"}}, "data": [{"binder": "B1", "values": [{"measurement": "binding result", "setting": "Mcm3", "result": "binds"}, {"measurement": "binding result", "setting": "Mcm4", "result": "binds"}]}, {"binder": "B2", "values": [{"measurement": "stoichiometry N", "setting": "MCM2-7 double hexamer", "result": "2 DDK per MCM2-7 double hexamer"}]}]}
